Results taken from article PMC2600746.

Target: GST-FoxK[414-654] (Drosophila melanogaster, UniProt A0JL24 414-654)
Experiment: competition EMSA

B1: GAS (dsDNA)
DNA 1: GCGTCTTTTCCGGGAAATACAT
DNA 2: ATGTATTTCCCGGAAAAGACGC
  binding result: no binding
